Here are results for four molecules from patent US20240318156A1.

The target in data set [1] is T1, Recombinant human GM2 activator protein (GM2AP) containing an N-terminal 6×-histidine tag, P17900.
T1 chain: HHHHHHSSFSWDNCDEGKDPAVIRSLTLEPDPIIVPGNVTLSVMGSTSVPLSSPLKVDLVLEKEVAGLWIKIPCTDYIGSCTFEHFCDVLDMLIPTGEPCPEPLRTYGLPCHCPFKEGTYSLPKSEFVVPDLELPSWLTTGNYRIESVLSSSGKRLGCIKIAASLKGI

In data set [2] the target is cation independent mannose 6-phosphate receptor (CI-MPR) (human) (UniProt P11717). The experiment in a line: cell-based or functional assay.
Chain of UniProt P11717 (P11717 41-2491): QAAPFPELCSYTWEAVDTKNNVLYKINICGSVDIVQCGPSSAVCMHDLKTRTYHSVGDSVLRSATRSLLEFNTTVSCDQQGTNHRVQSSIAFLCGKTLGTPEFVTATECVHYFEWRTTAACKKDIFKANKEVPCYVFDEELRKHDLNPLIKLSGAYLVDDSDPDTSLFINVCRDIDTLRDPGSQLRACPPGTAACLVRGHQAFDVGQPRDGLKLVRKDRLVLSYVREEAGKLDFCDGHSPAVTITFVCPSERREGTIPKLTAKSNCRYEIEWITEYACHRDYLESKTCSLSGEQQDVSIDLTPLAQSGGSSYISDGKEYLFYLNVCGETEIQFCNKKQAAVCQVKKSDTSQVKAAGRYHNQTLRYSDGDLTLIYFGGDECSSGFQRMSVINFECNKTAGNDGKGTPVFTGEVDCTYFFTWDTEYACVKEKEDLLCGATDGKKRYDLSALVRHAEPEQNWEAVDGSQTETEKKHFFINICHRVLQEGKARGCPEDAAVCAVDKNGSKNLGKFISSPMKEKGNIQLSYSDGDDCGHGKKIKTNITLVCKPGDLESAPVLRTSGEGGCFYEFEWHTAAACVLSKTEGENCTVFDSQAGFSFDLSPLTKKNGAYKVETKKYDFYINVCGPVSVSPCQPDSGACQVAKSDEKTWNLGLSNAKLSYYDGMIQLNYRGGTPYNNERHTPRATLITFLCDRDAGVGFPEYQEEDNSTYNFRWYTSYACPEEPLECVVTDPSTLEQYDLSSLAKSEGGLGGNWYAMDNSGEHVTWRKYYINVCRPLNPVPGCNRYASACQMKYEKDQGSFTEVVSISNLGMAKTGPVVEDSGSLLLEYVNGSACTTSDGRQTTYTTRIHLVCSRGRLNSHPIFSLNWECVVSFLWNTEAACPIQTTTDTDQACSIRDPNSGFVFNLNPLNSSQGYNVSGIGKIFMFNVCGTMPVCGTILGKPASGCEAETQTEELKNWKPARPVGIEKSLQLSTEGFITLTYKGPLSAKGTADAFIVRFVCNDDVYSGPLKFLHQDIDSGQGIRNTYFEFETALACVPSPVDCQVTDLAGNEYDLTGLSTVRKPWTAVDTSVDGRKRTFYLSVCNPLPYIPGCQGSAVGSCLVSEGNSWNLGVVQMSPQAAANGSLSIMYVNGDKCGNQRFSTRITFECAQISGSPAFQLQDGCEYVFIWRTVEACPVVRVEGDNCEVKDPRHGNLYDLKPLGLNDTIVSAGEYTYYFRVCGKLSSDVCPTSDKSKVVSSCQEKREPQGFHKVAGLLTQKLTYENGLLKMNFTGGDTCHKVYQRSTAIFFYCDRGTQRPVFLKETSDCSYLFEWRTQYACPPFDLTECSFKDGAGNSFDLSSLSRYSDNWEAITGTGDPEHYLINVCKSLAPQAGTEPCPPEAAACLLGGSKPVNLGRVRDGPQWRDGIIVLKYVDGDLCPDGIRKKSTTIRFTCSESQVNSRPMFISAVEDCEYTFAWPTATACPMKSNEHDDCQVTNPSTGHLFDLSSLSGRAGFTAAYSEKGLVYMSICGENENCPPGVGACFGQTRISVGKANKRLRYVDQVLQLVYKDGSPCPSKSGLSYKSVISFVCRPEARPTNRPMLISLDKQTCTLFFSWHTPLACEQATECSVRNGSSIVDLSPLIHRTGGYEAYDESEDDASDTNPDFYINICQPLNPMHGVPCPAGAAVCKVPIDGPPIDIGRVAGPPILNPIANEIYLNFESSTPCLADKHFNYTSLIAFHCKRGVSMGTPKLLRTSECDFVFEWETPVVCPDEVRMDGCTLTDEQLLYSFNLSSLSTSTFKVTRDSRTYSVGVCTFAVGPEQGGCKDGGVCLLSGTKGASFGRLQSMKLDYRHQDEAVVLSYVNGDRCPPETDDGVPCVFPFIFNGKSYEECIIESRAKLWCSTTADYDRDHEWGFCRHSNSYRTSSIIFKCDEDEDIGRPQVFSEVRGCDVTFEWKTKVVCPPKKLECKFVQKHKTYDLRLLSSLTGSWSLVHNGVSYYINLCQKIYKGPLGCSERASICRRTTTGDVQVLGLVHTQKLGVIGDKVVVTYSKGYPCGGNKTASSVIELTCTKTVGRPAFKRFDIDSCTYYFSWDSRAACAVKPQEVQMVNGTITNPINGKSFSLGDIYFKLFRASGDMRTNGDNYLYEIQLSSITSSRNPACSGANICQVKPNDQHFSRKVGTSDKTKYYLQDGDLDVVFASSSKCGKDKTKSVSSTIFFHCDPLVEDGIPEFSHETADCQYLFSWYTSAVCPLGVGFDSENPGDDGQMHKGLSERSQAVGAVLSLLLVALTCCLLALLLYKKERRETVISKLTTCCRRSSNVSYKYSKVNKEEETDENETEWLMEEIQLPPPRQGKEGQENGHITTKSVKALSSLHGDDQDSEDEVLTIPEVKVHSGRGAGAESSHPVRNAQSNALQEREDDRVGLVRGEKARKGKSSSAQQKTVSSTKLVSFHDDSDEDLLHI

B1: Mod2B (Modified β/β homodimer) (protein)
chain: TQVQQLLVSITLQSECDAFPNISSDESYTLLVKEPVAVLKANRVWGALRGLETFSQLVYQDSYGTFTINESTIIDSPRFSHRGILIDTSRHYLPVKIILKTLDAMAFNKFNVLHWHIVDDQSFPYQSITFPELSNKGSYSLSHVYTPNDVRMVIEYARLRGIRVLPEFDTPGHTLSWGKGQKDLLTPCYSGSEPSGTFGPINPTLNTTYSFLTTFFKEISEVFPDQFIHLGGDEVEFKCWESNPKIQDFMRQKGFGTDFKKLESFYIQKVLDIIATINKGSIVWQEVFDDKAKLAPGTIVEVWKDSAYPEELSRVTASGFPVILSAPWYLNRISYGQDWRKYYKVEPLDFGGTQKQKQLFIGGEACLWGEYVDATNLTPRLWPRASAVGERLWSSKDVRDMDDAYDRLTRHRCRMVERGIAAQPLYAGYCNHENM
As to B1, in data set [1], the “GM2AP-dependent kinetics of GM2 hydrolysis” value is “GM2AP binding kinetics to the Hex homodimers was comparable to the wild type heterodimer”; the Km (Kinetic data of FIG. 2, GM2AP-dependent GM2 degradation) worked out at 20.4 µM; the Km [GM2AP], µM (GM2AP-dependent GM2 hydrolysis, natural substrate assay) was found to be 20.4 µM.

B2: HexM (Modified α/α homodimer) (protein)
chain: TLEKNVLVVSVVTPGCNQLPTLESVENYTLTINDDQCLLLSETVWGALRGLETFSQLVWKSAEGTFFINKTEIEDFPRFPHRGLLLDTSRHYLPLKSILDTLDVMAYNKLNVFHWHLVDDQSFPYESFTFPELMRKGSYSLSHIYTAQDVKEVIEYARLRGIRVLAEFDTPGHTLSWGPGIPGLLTPCYSGSEPSGTFGPVNPSLNNTYEFMSTFFLEVSSVFPDFYLHLGGDEVDFTCWKSNPEIQDFMRKKGFGEDFKQLESFYIQTLLDIVSSYGKGYVVWQEVFDNKVKIQPDTIIQVWREDIPVNYMKELELVTKAGFRALLSAPWYLNRISYGQDWRKFYKVEPLAFEGTPEQKALVIGGEACMWGEYVDATNLVPRLWPRAGAVAERLWSNKLTRDMDDAYDRLSHFRCELVRRGVAAQPLYAGYCNQEFEQT
Consider B2, for which the K uptake (nM) MUG activity in data set [2] amounted to 130 nM. Also, in data set [1], the “GM2AP-dependent kinetics of GM2 hydrolysis” value is “GM2AP binding kinetics to the Hex homodimers was comparable to the wild type heterodimer”; the Km (Kinetic data of FIG. 2, GM2AP-dependent GM2 degradation) amounted to 19.6 µM; the Km GM2AP amounted to 19.6 µM; the Km [GM2AP], µM (GM2AP-dependent GM2 hydrolysis, natural substrate assay) is 19.6 µM.

B3: HexA (wild-type; α/β heterodimer) (protein)
chain 1: TLEKNVLVVSVVTPGCNQLPTLESVENYTLTINDDQCLLLSETVWGALRGLETFSQLVWKSAEGTFFINKTEIEDFPRFPHRGLLLDTSRHYLPLSSILDTLDVMAYNKLNVFHWHLVDDPSFPYESFTFPELMRKGSYNPVTHIYTAQDVKEVIEYARLRGIRVLAEFDTPGHTLSWGPGIPGLLTPCYSGSEPSGTFGPVNPSLNNTYEFMSTFFLEVSSVFPDFYLHLGGDEVDFTCWKSNPEIQDFMRKKGFGEDFKQLESFYIQTLLDIVSSYGKGYVVWQEVFDNKVKIQPDTIIQVWREDIPVNYMKELELVTKAGFRALLSAPWYLNRISYGPDWKDFYIVEPLAFEGTPEQKALVIGGEACMWGEYVDNTNLVPRLWPRAGAVAERLWSNKLTSDLTFAYERLSHFRCELLRRGVQAQPLNVGFCEQEFEQT
chain 2: ARAPSVSAKPGPALWPLPLSVKMTPNLLHLAPENFYISHSPNSTAGPSCTLLEEAFRYHGYIFGFYKWHHEPAEFQAKTQVQQLLVSITLQSECDAFPNISSDESYTLLVKEPVAVLKANRVWGALRGLETFSQLVYQDSYGTFTINESTIIDSPRFSHRGILIDTSRHYLPVKIILKTLDAMAFNKFNVLHWHIVDDQSFPYQSITFPELSNKGSYSLSHVYTPNDVRMVIEYARLRGIRVLPEFDTPGHTLSWGKGQKDLLTPCYSRQNKLDSFGPINPTLNTTYSFLTTFFKEISEVFPDQFIHLGGDEVEFKCWESNPKIQDFMRQKGFGTDFKKLESFYIQKVLDIIATINKGSIVWQEVFDDKAKLAPGTIVEVWKDSAYPEELSRVTASGFPVILSAPWYLDLISYGQDWRKYYKVEPLDFGGTQKQKQLFIGGEACLWGEYVDATNLTPRLWPRASAVGERLWSSKDVRDMDDAYDRLTRHRCRMVERGIAAQPLYAGYCNHENM
Turning to B3, the K uptake (nM) MUG activity in data set [2] stood at 3.3 nM. Further, in data set [1], the Km (Kinetic data of FIG. 2, GM2AP-dependent GM2 degradation) came to 14.5 µM; the Km GM2AP is 14.5 µM; the Km [GM2AP], µM (GM2AP-dependent GM2 hydrolysis, natural substrate assay) worked out at 14.5 µM.

B4: HexD3 (Modified α/α homodimer) (protein)
chain: ARAPSVSAKPGPALWPLPLSVKMTPNLLHLAPENFYISHSPNSTAGPSCTLLEEAFRRYHGYIFGFYKWHHEPAEFQAKTQVQQLLVSITLQSECDAFPNISSDESYTLLVKEPVAVLKANRVWGALRGLETFSQLVYQDSYGTFTINESTIIDSPRFPHRGLLLDTSRHYLPLKSILDTLDVMAYNKLNVFHWHLVDDQSFPYESFTFPELMRKGSYSLSHIYTAQDVKEVIEYARLRGIRVLAEFDTPGHTLSWGPGIPGLLTPCYSGSEPSGTFGPVNPSLNNTYEFMSTFFLEVSSVFPDFYLHLGGDEVDFTCWKSNPEIQDFMRKKGFGEDFKQLESFYIQTLLDIVSSYGKGYVVWQEVFDNKVKIQPDTIIQVWREDIPVNYMKELELVTKAGFRALLSAPWYLNRISYGQDWRKFYKVEPLAFEGTPEQKALVIGGEACMWGEYVDATNLVPRLWPRAGAVAERLWSNKLTRDMDDAYDRLSHFRCELVRRGVAAQPLYAGYCNQEFEQT
Turning to B4, the K uptake (nM) MUG activity in data set [2] was found to be 5.8 nM. Further, in data set [1], the Km (Kinetic data of FIG. 2, GM2AP-dependent GM2 degradation) is 13.7 µM; the Km GM2AP was determined as 13.7 µM; the Km [GM2AP], µM (GM2AP-dependent GM2 hydrolysis, natural substrate assay) was 13.7 µM.
